Source: US20230059341A1 (TESARO, published 2023)
Read-outs that look alike come from different tables or passages of the source. Blank lines part the entries; values can stand above or below the binder they belong to.

How the values were obtained:
[1] = molecular target: T1, human PD-1 on PD-1 effector cells (Jurkat T cells, Promega #J1155) (human, UniProt Q15116 25-288); test: cell-based or functional assay
[2] = molecular target: T2, Neonatal Fc Receptor (FcRn) (UniProt P55899 24-297; P61769 21-119, limits assumed); test: FcRn binding assay, BIACORE (SPR)
[3] = molecular target: T3, PD-1 protein constitutively expressed on engineered CHO K1 cells (UniProt Q15116 25-288, limits assumed); test: MSD potency assay: competitive binding on CHO K1 cells expressing PD-1, inhibition of PD-L1-mFc binding, ECL; percent of reference material
T3 construct: whole, on cells; also called programmed cell death protein 1
Protocol: (§1) The Meso Scale Discovery (MSD) potency assay employs engineered CHO K1 cells constitutively expressing the PD-1 protein. […] The readout is measured using a specific detection antibody mixture that releases an electrochemiluminescence (ECL) signal that can be quantified.

[4] = molecular target: T2, Neonatal Fc Receptor (FcRn); test: BIACORE (SPR), antibody immobilized on sensor chip, FcRn injected as analyte
Protocol: FcRn binding was assessed via BIACORE analysis. […] Various concentrations of analyte (FcRn) were injected for analysis of the association and dissociation properties.

[5] = molecular target: T2, Neonatal Fc Receptor (FcRn); test: FcRn binding assay, BIACORE (SPR); remark: listed apart in the source
[6] = molecular target: T1, human PD-1 on PD-1 effector cells …; test: cell-based or functional assay; remark: listed apart in the source
[7] = molecular target: T1, human PD-1 on PD-1 effector cells …; test: cell-based or functional assay; remark: listed apart in the source
[8] = molecular target: T3, PD-1 protein constitutively expressed …; test: MSD potency assay: competitive binding on CHO K1 cells expressing PD-1, inhibition of PD-L1-mFc binding, ECL; percent of reference material; remark: listed apart in the source
Protocol: as §1

[9] = molecular target: T3, PD-1 protein constitutively expressed …; test: as above; remark: listed apart in the source
Protocol: as §1

[10] = molecular target: T1, human PD-1 on PD-1 effector cells …; test: cell-based or functional assay; remark: listed apart in the source
[11] = molecular target: T2, Neonatal Fc Receptor (FcRn); test: FcRn binding assay, BIACORE (SPR); remark: listed apart in the source

T3 sequence (Q15116 25-288 limits assumed, change not shown): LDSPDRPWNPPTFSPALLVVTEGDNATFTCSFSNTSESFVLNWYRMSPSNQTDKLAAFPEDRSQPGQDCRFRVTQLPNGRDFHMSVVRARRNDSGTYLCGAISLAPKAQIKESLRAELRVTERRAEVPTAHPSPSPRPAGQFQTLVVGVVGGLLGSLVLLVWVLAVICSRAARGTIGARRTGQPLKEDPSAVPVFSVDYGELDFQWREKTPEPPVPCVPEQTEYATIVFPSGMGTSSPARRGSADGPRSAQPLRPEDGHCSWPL
T1 sequence (Q15116 25-288): as the sequence (Q15116 25-288 limits assumed, change not shown) above

Relative Potency, Cell-Based Bioassay [1]: 47%
Kd [2]: 12400 nM
Relative Potency, MSD Binding [3]: 74%
B1: Dostarlimab, H2O2 treated, 25° C., 2 weeks (antibody, human IgG4 S228P, kappa)
heavy: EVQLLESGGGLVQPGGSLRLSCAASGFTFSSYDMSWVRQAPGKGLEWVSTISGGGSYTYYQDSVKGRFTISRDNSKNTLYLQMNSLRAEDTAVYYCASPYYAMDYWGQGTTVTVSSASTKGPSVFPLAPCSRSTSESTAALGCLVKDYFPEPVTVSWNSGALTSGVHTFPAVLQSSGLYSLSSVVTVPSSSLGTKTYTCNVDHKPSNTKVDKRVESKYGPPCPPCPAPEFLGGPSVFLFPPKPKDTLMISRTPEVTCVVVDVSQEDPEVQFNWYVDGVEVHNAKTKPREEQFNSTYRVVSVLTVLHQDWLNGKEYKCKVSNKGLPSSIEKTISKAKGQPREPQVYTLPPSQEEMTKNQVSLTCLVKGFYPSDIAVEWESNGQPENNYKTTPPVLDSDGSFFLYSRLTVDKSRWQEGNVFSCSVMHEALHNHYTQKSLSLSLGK
light: DIQLTQSPSFLSAYVGDRVTITCKASQDVGTAVAWYQQKPGKAPKLLIYWASTLHTGVPSRFSGSGSGTEFTLTISSLQPEDFATYYCQHYSSYPWTFGQGTKLEIKRTVAAPSVFIFPPSDEQLKSGTASVVCLLNNFYPREAKVQWKVDNALQSGNSQESVTEQDSKDSTYSLSSTLTLSKADYEKHKVYACEVTHQGLSSPVTKSFNRGEC
modifications: percent of population: Trp 50 oxidation 1.3; Asn 137 deamidation 1.3; percent of population: Met 34 oxidation 28.8; Met 83 oxidation 1.1; Met 103 oxidation 86.1; Met 248 oxidation 99.6; Asn 311 deamidation 7.4; Met 354 oxidation 99.8; Asn 380 deamidation 10.5; Asn 385 deamidation 1.9; Met 424 oxidation 98.1; Lys 443 clipped 97.7
notes: 0.1% (v:v) H2O2; also called H2O2, 25° C., 2 weeks

Kd [4]: 1690 nM
B2: Dostarlimab reference material (antibody, human IgG4 S228P, kappa)
heavy: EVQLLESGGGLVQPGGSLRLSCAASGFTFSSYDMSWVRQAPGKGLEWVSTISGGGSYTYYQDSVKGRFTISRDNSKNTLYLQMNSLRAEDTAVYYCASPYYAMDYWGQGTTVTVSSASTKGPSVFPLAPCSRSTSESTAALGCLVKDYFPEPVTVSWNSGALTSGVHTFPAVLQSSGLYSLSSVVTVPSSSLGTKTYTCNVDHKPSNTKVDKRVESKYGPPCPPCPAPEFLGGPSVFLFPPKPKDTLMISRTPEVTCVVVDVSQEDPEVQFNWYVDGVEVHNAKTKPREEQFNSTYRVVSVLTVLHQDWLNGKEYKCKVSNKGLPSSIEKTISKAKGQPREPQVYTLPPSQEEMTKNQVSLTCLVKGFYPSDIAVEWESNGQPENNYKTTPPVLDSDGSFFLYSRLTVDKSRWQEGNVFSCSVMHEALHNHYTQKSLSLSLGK
light: DIQLTQSPSFLSAYVGDRVTITCKASQDVGTAVAWYQQKPGKAPKLLIYWASTLHTGVPSRFSGSGSGTEFTLTISSLQPEDFATYYCQHYSSYPWTFGQGTKLEIKRTVAAPSVFIFPPSDEQLKSGTASVVCLLNNFYPREAKVQWKVDNALQSGNSQESVTEQDSKDSTYSLSSTLTLSKADYEKHKVYACEVTHQGLSSPVTKSFNRGEC

Kd [5]: 2290 nM
Relative Potency (Potency by cell-based bioassay) [6]: 86%
Relative Potency, Cell-Based Bioassay [7]: 86%
Relative Potency, MSD Binding [8]: 76%
B3: Dostarlimab, thermally degraded, 50° C., 3 weeks (antibody, human IgG4 S228P, kappa)
heavy: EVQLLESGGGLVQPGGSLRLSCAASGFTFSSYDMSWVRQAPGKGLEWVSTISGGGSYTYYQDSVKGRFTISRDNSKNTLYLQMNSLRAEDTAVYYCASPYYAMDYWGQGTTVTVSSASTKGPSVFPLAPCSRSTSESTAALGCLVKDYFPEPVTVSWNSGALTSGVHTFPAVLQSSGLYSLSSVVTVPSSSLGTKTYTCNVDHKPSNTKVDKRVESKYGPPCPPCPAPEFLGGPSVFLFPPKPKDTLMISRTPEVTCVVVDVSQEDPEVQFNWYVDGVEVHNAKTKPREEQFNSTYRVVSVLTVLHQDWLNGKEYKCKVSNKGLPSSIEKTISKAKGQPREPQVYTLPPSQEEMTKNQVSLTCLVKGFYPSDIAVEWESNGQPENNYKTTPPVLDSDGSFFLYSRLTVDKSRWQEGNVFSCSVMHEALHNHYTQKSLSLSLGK
light: DIQLTQSPSFLSAYVGDRVTITCKASQDVGTAVAWYQQKPGKAPKLLIYWASTLHTGVPSRFSGSGSGTEFTLTISSLQPEDFATYYCQHYSSYPWTFGQGTKLEIKRTVAAPSVFIFPPSDEQLKSGTASVVCLLNNFYPREAKVQWKVDNALQSGNSQESVTEQDSKDSTYSLSSTLTLSKADYEKHKVYACEVTHQGLSSPVTKSFNRGEC
modifications: percent of population: Asp 151/167 isomerization 2.5; percent of population: Met 248 oxidation 7.6; Asp 261/266/276 isomerization 13.1; Asn 311 deamidation 7.4; Met 354 oxidation 4.2; Asn 380 deamidation 14.7; Asn 385 deamidation 5.9; Asp 395/397/409 isomerization 2.2; Met 424 oxidation 3.5; Asn 430 deamidation 2.0; Lys 443 clipped 97.8
notes: Mixture; HMW 11.2%, acidic peaks 59.1%; also called Thermal Degradation

Relative Potency, MSD Binding [9]: 79%
Relative Potency (Potency by cell-based bioassay) [6]: 102%
Relative Potency, Cell-Based Bioassay [10]: 102%
Kd [11]: 1660 nM
B4: Dostarlimab, AAPH treated, T0 (exposed to AAPH, no incubation) (antibody, human IgG4 S228P, kappa)
heavy: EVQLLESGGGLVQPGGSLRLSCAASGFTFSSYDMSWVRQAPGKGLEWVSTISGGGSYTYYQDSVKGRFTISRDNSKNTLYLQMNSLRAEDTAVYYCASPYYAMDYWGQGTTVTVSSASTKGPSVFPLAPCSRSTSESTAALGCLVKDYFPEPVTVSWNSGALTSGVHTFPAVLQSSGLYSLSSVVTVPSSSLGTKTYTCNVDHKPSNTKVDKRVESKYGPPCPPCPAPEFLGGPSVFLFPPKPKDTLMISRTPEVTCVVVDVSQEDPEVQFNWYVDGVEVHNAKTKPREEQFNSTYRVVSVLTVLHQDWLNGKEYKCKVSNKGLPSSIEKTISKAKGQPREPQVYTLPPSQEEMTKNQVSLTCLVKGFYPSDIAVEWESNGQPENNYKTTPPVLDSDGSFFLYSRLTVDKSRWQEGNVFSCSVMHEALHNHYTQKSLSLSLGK
light: DIQLTQSPSFLSAYVGDRVTITCKASQDVGTAVAWYQQKPGKAPKLLIYWASTLHTGVPSRFSGSGSGTEFTLTISSLQPEDFATYYCQHYSSYPWTFGQGTKLEIKRTVAAPSVFIFPPSDEQLKSGTASVVCLLNNFYPREAKVQWKVDNALQSGNSQESVTEQDSKDSTYSLSSTLTLSKADYEKHKVYACEVTHQGLSSPVTKSFNRGEC
modifications: percent of population: Asn 137 deamidation 1.0; percent of population: Met 248 oxidation 3.3; Asp 261/266/276 isomerization 1.0; Asn 311 deamidation 6.3; Asn 380 deamidation 9.5; Asn 385 deamidation 1.0; Asn 430 deamidation 1.3; Lys 443 clipped 97.8
notes: 5 mM AAPH, quenched at once with methionine; also called AAPH T0; AAPH Oxidation

Kd [4]: 1750 nM
B5: Dostarlimab (antibody, human IgG4 S228P, kappa)
heavy: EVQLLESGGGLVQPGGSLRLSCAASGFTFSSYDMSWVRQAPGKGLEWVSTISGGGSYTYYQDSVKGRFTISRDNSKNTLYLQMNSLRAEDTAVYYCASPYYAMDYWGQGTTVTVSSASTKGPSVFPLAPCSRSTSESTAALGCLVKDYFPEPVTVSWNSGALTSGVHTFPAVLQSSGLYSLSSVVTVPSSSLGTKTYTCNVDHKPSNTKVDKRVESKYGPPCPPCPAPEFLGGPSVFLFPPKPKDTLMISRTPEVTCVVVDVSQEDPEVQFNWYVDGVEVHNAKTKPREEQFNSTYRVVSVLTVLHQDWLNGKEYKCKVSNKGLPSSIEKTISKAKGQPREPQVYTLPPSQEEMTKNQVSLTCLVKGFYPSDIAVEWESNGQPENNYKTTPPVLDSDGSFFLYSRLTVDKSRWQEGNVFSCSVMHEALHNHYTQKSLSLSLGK
light: DIQLTQSPSFLSAYVGDRVTITCKASQDVGTAVAWYQQKPGKAPKLLIYWASTLHTGVPSRFSGSGSGTEFTLTISSLQPEDFATYYCQHYSSYPWTFGQGTKLEIKRTVAAPSVFIFPPSDEQLKSGTASVVCLLNNFYPREAKVQWKVDNALQSGNSQESVTEQDSKDSTYSLSSTLTLSKADYEKHKVYACEVTHQGLSSPVTKSFNRGEC
modifications: N-glycan at Asn 293 (99% occupancy)
notes: also called dostarlimab drug substance (DS); anti-PD-1 antibody

Relative Potency, MSD Binding [9]: 43%
Kd [11]: 9690 nM
B6: Dostarlimab, AAPH treated, 40° C., 7 days (antibody, human IgG4 S228P, kappa)
heavy: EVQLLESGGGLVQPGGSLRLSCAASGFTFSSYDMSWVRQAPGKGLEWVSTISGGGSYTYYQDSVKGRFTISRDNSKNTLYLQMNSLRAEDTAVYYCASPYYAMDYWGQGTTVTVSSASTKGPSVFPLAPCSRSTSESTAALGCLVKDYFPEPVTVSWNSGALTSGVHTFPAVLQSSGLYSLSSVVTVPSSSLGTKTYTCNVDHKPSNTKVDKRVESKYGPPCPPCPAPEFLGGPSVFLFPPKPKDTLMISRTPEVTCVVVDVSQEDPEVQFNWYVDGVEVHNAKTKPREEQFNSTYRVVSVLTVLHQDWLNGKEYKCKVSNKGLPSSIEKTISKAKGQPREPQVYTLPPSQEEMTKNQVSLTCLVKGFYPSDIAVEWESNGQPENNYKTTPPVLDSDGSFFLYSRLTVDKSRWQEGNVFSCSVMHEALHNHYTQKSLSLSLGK
light: DIQLTQSPSFLSAYVGDRVTITCKASQDVGTAVAWYQQKPGKAPKLLIYWASTLHTGVPSRFSGSGSGTEFTLTISSLQPEDFATYYCQHYSSYPWTFGQGTKLEIKRTVAAPSVFIFPPSDEQLKSGTASVVCLLNNFYPREAKVQWKVDNALQSGNSQESVTEQDSKDSTYSLSSTLTLSKADYEKHKVYACEVTHQGLSSPVTKSFNRGEC
modifications: PTM levels of this sample are not tabulated
notes: 5 mM AAPH; HMW 18.7%; also called AAPH, 40° C., 7 days

Relative Potency, MSD Binding [9]: 57%
Relative Potency, Cell-Based Bioassay [10]: 14%
Kd [11]: 8330 nM
B7: Dostarlimab, AAPH treated, 40° C., 3 days (antibody, human IgG4 S228P, kappa)
heavy: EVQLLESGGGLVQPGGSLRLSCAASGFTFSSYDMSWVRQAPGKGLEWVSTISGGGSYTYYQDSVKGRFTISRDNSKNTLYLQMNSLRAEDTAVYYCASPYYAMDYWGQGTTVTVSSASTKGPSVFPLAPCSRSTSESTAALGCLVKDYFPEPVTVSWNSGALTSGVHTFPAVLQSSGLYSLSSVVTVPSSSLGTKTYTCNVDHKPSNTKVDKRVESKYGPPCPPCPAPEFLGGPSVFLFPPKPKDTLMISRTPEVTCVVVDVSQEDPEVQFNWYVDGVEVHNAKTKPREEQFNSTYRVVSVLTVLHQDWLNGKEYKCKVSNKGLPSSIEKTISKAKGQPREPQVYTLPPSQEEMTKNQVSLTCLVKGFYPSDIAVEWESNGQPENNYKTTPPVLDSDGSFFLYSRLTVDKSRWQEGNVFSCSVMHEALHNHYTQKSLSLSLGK
light: DIQLTQSPSFLSAYVGDRVTITCKASQDVGTAVAWYQQKPGKAPKLLIYWASTLHTGVPSRFSGSGSGTEFTLTISSLQPEDFATYYCQHYSSYPWTFGQGTKLEIKRTVAAPSVFIFPPSDEQLKSGTASVVCLLNNFYPREAKVQWKVDNALQSGNSQESVTEQDSKDSTYSLSSTLTLSKADYEKHKVYACEVTHQGLSSPVTKSFNRGEC
modifications: percent of population: Trp 50 oxidation 74.2; percent of population: Met 103 oxidation 7.0; Met 248 oxidation 88.4; Asp 261/266/276 isomerization 1.0; Asn 311 deamidation 6.6; Met 354 oxidation 44.8; Asn 380 deamidation 9.6; Asn 385 deamidation 1.2; Met 424 oxidation 78.2; Lys 443 clipped 97.7
notes: 5 mM AAPH; HMW 11.8%; also called AAPH, 40° C., 3 days
